This is an account of results in patent US6770458.

Holding throughout (test): cell-based or functional assay
For test [1], the target named is p53 fused to the GAL4 DNA-binding domain (pAS2) (UniProt P04386).
Test [2] concerns the target CDK2 fused to the GAL4 DNA-binding domain (pAS2) (UniProt P04386).
Test [3] concerns the target Smad7 (expression construct, tag not specified).

p53 fused to the GAL4 DNA-binding domain (pAS2), sequence (P04386 1-147): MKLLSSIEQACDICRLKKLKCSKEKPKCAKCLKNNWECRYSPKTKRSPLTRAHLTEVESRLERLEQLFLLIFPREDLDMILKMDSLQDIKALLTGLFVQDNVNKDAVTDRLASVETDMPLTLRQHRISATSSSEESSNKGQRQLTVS
CDK2 fused to the GAL4 DNA-binding domain (pAS2), sequence (P04386 1-147): as above

Consider “FKBP12.6 in pACT (from UniProt Q9Z2I2 1-108)”, for which the β-galactosidase Activity (relative scale) in test [1] is 1.1.
For “STRAP (Serine-Threonine Kinase Receptors Associated Protein) in pACT (from UniProt Q9Z1Z2 1-350)”, the β-galactosidase Activity (relative scale) in test [2] is 1.2; in test [1], under 1.
“STRAP (expression construct, tag not specified) (from UniProt Q9Z1Z2 1-350)”: the fold repression of (CAGA)9 MLP-Luc reporter activity in HepG2 cells in test [3] was found to be 105 fold.
